Data taken from PMC3649970, “A Unique Spumavirus Gag N-terminal Domain with Functional Properties of Orthoretroviral Matrix and Capsid” (PLoS Pathogens, 2013).
Ends that are not written are not given here.

How the values were obtained:
equivalent Gag-NtD (FFV) = conditions: FFV Env leader peptide with FFV Gag-NtD; ref [29]; cited from earlier work
Text: In the structure, residues 7–16 of the Env leader peptide comprise the amphipathic α-helix bound in the Env binding site of the Gag-NtD and residues 1–6 provide intramolecular hydrogen bonding that stabilises the helical conformation. […] Therefore, the hydrophobic interface observed in the structure likely represents the complete interaction between the leader peptide and FV Gag. The apolar ch ...

[1] = biological target: FFV-Gag-NtD (feline foamy virus Gag residues 1-154), His tag removed (feline foamy virus (FFV)); test: AUC
[2] = biological target: FFV-Gag-NtD (feline foamy virus Gag residues 1-154), His-tagged (feline foamy virus (FFV)); test: AUC
[3] = biological target: FFV-Gag-NtD (feline foamy virus Gag residues 1-154), His-tagged (feline foamy virus (FFV)); test: SEC-MALS
[4] = biological target: FFV Env leader peptide 1-30 (Feline foamy virus) (UniProt O56861); test: given as Ka; conditions: cited from earlier work
PFV-Gag-NtD = biological target: T1, PFV-Gag-NtD (Human spumaretrovirus, UniProt P14349); test: ITC binding of Env1–20 to PFV-Gag-NtD; design: species or system Prototypic Foamy Virus (PFV); conditions: 1 mM Env peptide injected into 50 µM PFV-Gag-NtD, 25 mM Na-phosphate pH 6.55, 100 mM NaCl, 0.5 mM TCEP, read-out: equilibrium association constant (K) (converted)
T1 construct: HFV ht-(M1-S179); made in house; host or cells: E. coli Rosetta 2 (DE3)
T1 sequence (P14349 1-179): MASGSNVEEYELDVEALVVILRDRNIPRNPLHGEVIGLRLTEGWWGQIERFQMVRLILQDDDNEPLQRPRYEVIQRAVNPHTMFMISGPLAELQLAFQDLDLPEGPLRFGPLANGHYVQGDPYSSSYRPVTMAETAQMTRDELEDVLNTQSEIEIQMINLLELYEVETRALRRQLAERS
Text: The DNA sequences coding for PFV-Gag residues 1–179 (PFV-Gag-NtD) and FFV residues 1–154 (FFV-Gag-NtD) were amplified by PCR from template plasmids pcziGag4 and pcDWF003 containing the PFV and FFV Gag genes respectively. PCR products were inserted into a pET47b expression vector (Novagen) using ligation independent cloning in order to produce N-terminal His-tag fusions with 3C protease cleavage sites. The correct sequence of expression constructs was verified by automated DNA sequencing (Beckman Coulter Genomics). His-tagged PFV- and FFV-Gag-NtD were expressed in the E. coli strain Rosetta 2 (DE3) and purified using Ni-NTA affinity (Qiagen) and size exclusion chromatography on Superdex 200 (GE healthcare). Selenium was incorporated into PFV-Gag-NtD by replacement of methionine with seleno-methionine in defined culture medium and by inhibition of methionine biosynthesis just prior to IPTG induction. Verification of the processed N-terminal methionine, correct molecular mass and degree of selenium incorporation was obtained by electrospray ionisation mass-spectrometry. Peptides comprising residues 1–20 and 5–18 from the PFV-Env leader region were purchased HPLC purified from Pepceuticals Ltd.
ITC was carried out using an ITC-200 calorimeter (MicroCal). […] Data was analysed using the Origin-based software provided by the manufacturers.

SEC-MALS = biological target: the molecule itself; test: SEC-MALS
[5] = SEC-MALLS solution molecular weight of Gag-NtDs; assay type: physicochemical; conditions: Superdex 200 10/300 GL, 20 mM Tris-HCl, 150 mM NaCl, 0.5 mM TCEP, pH 8.0; 12-1.5 mg/ml, concentration invariant
Description: Size exclusion chromatography coupled multi-angle laser light scattering (SEC-MALLS) was used to determine the molar mass of FFV- and PFV-Gag-Ntd. Samples ranging from 1.5 to 12.0 mgml^−1 were applied in a volume of 100 µl to a Superdex 200 10/300 GL column equilibrated in 20 mM Tris-HCl, 150 mM NaCl and 0.5 mM TCEP, pH 8.0, at a flow rate of 0.5 ml/min. The scattered light intensity and the protein concentration of the column eluate were recorded using a DAWN-HELEOS laser photometer and OPTILAB-rEX differential refractometer respectively. The weight-averaged molecular mass of material contained in chromatographic peaks was determined from the combined data from both detectors using the ASTRA software version 6.0.3 (Wyatt Technology Corp., Santa Barbara, CA, USA).

[6] = Sedimentation velocity AUC of Gag-NtDs; assay type: physicochemical; conditions: for ƒ/ƒ0 (D20,w): frictional ratio calculated from D20,w; for ƒ/ƒ0 (D20,w) / ƒ/ƒ0 (S20,w): discrete component analysis; for ƒ/ƒ0 (S20,w): frictional ratio calculated from S20,w; for sedimentation coefficient S20,w: no concentration dependency over the range measured; for D20,w (×10^7) / Mw C(S) / S20,w (×10^13): sedimentation velocity; for D20,w (×10^7) / S20,w (×10^13): 293 K, pH 7.5, Crange 20–90 µM (PFV), 30–130 µM (FFV); for Mw C(S): C(S) analysis; for S20,w (×10^13): discrete component analysis, 50,000 rpm; for Mw (S/D): weight averaged molecular weight from discrete component analysis; for ƒ/ƒ0 C(S): weight-averaged frictional ratio from best fit C(S) distribution function
Description: Sedimentation velocity experiments were performed in a Beckman Optima Xl-I analytical ultracentrifuge using conventional aluminium double sector centrepieces and sapphire windows. Solvent density and the protein partial specific volumes were determined as described. Prior to centrifugation, samples were prepared by exhaustive dialysis against the buffer blank solution, 20 mM Tris-HCl, 150 mM NaCl and 0.5 mM TCEP, pH 7.5. Centrifugation was performed at 50,000 rpm and 293 K in an An50-Ti rotor. Interference data were acquired at time intervals of 180 sec at varying sample concentration (0.5–2.5 mg/ml). Data recorded from moving boundaries was analysed using both a discrete species model and in terms of the size distribution functions C(S) using the program SEDFIT [90], [91], [92]. For analysis of Env peptide binding, sedimentation velocity experiments were conducted in 3 mm pathlength centrepieces using equimolar mixtures (75 µM) of PFV-Gag-NtD and Env peptides. In these experiments, radial absorbance scans at 280 nm were also recorded along with the interference data.

[7] = Sedimentation equilibrium AUC of Gag-NtDs; assay type: physicochemical; conditions: for weight averaged molecular weight, sedimentation equilibrium: multispeed, global fit with single ideal molecular species model; for Mw (sedimentation equilibrium): weight averaged, Global SE analysis, pH 7.5
Description: Sedimentation equilibrium experiments were performed in a Beckman Optima XL-I analytical ultracentrifuge using charcoal filled Epon six-channel centrepieces in an An-50 Ti rotor. Prior to centrifugation, samples were dialyzed exhaustively against the buffer blank, 20 mM Tris-HCl, pH 7.5, 150 mM NaCl, 0.5 mM TCEP. After centrifugation for 18 h, interference data was collected 2-h intervals until no further change in the profiles was observed. The rotor speed was then increased and the procedure repeated. Data were collected on samples of different concentrations of FFV- and PFV-Gag-NtD (14–100 µM) at three speeds and the program SEDPHAT [93], [94] was used to determine weight-averaged molecular masses by nonlinear fitting of individual multi-speed equilibrium profiles (A versus r) to a single-species ideal solution model.

Molecule: residues 1–30 of the FFV Env leader peptide: residues 1–30 of the FFV Env leader peptide (MEQEHVMTLKEWMEWNAHKQLQKLQSTHPE; leader peptide; UniProt O56861 1-30, looked up, fragment)
- equilibrium association constant (equivalent Gag-NtD (FFV)): 65000 M⁻¹

Molecule: FFV-Gag-NtD (feline foamy virus Gag residues 1-154), His tag removed (domain or fragment)
- stoichiometry N [1]: 2

Molecule: FFV-Gag-NtD (feline foamy virus Gag residues 1-154), His-tagged (domain or fragment)
- stoichiometry N [2]: 2
- stoichiometry N [3]: 2

Molecule: FFV Gag (from UniProt O56860)
- Kd [4]: 15.4 µM

Molecule: MAPPMTLQQWIIWKKMNKAH [Env1–20]
- Kd (PFV-Gag-NtD): 6.67 µM

B1: PFV-Gag-NtD (amino terminal domain of Prototypic Foamy Virus Gag, residues 1-179) (domain or fragment)
chain: T1 sequence (P14349 1-179)
notes: source: E. coli Rosetta 2 (DE3), purified (Ni-NTA, Superdex 200 SEC); not shown: His-tag, N-terminal, kept
- stoichiometry N (SEC-MALS): 2

B2: PFV-Gag-NtD: PFV-Gag residues 1–179, N-terminal His-tag fusion expressed in E. coli (protein, UniProt P14349 1-179, looked up, fragment)
chain: T1 sequence (P14349 1-179)
modifications: N-terminal His-tag
notes: PFV-Gag residues 1–179, N-terminal His-tag fusion expressed in E. coli
- solution molecular weight (SEC-MALLS) [5]: 40.0 kDa
- ƒ/ƒ0 (D20,w) [6]: 1.52
- ƒ/ƒ0 (S20,w) [6]: 1.48
- sedimentation coefficient S20,w [6]: 3.08
- D20,w (×10^7) [6]: 5.96±0.04 cm^2 sec^−1
- Mw C(S) [6]: 48.2±1 kD
- S20,w (×10^13) [6]: 3.08±0.02 sec
- Mw (S/D) [6]: 46.7±0.2 kD
- ƒ/ƒ0 C(S) [6]: 1.54
- weight averaged molecular weight, sedimentation equilibrium [7]: 44 kDa
- Mw (sedimentation equilibrium) ([7]; Crange 30–100 µM, His-tagged): 44±2 kD

B3: FFV-Gag-NtD: FFV Gag residues 1–154, N-terminal His-tag fusion expressed in E. coli (protein, UniProt O56860 1-154, looked up, fragment)
chain: MARELNPLQLQQLYINNGLQPNPGHGDIIAVRFTGGPWGPGDRWARVTIRLQDNTGQPLQVPGYDLEPGIINLREDILIAGPYNLIRTAFLDLEPARGPERHGPFGDGRLQPGDGLSEGFQPITDEEIQAEVGTIGAARNEIRLLREALQRLQA
modifications: N-terminal His-tag
notes: FFV Gag residues 1–154, N-terminal His-tag fusion expressed in E. coli
- solution molecular weight (SEC-MALLS) [5]: 34.0 kDa
- ƒ/ƒ0 (D20,w) [6]: 1.42
- ƒ/ƒ0 (S20,w) [6]: 1.49
- sedimentation coefficient S20,w [6]: 2.72
- D20,w (×10^7) [6]: 6.81±0.3 cm^2 sec^−1
- Mw C(S) [6]: 37.4±1 kD
- S20,w (×10^13) [6]: 2.72±0.01 sec
- Mw (S/D) [6]: 36.1±1.5 kD
- ƒ/ƒ0 C(S) [6]: 1.47
- weight averaged molecular weight, sedimentation equilibrium [7]: 33.7 kDa
- Mw (sedimentation equilibrium) ([7]; Crange 14–50 µM, FFV-154 sample with the His tag removed): ^h33.7±1 kD
